Measurements published in US20170174775A1 (published 2017).
Numbering of substitutions follows the chain as printed.

B1: DOM4-130-54 (other)
VL: DIQMTQSPSSLSASVGDRVTITCRASQDIYLNLDWYQQKPGKAPKLLINFGSELQSGVPSRFSGSGYGTDFTLTISSLQPEDFATYYCQPSFYFPYTFGQGTKVEIKR
notes: dAb (VK single variable domain) against IL-1R1; parent
B2: DOM4-130-202 (other)
chain: B1 VL with T22S, N49S, F83S, F94Y
B3: DOM4-130-201 (other)
chain: B1 VL with N49K, S77N, R108W

Biological target: T1, IL-RI (Receptor Binding Assay)
T1 construct: The construct used in the RBA is not described; it may be the same as the IL-1R1 fusion protein; also called IL-1RI; IL-1R1
T1 sequence (P14778 whole entry, the tested form may be a part): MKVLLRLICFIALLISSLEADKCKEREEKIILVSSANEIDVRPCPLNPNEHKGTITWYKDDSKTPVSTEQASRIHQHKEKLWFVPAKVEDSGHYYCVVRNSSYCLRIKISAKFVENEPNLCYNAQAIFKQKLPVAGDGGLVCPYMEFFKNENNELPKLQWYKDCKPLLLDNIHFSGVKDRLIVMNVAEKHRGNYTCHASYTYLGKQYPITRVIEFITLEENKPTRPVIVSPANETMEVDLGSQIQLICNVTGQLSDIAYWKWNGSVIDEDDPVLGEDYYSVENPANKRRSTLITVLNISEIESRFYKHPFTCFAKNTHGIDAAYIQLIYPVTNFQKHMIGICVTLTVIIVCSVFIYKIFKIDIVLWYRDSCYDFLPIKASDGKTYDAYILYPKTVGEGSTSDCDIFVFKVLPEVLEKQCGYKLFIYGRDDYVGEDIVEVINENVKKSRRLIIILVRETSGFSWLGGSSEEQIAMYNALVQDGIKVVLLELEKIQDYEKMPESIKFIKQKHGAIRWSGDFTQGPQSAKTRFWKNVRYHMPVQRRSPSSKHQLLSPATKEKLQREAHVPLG
Assay: Receptor Binding Assay; inhibition of IL-1 binding to IL-RI

IC50 [nM] | Binder
0.28 | B1
0.254 | B2
0.257 | B3
